# Results as given in publication PMC9168836, “Clamping of DNA shuts the condensin neck gate” (Proceedings of the National Academy of Sciences of the …, 2021).
# T1: Smc4-3xStrepII (budding yeast (S. cerevisiae), UniProt Q12267 1-1418)
# T1 construct: Smc4, SMC subunit of budding yeast (S. cerevisiae) condensin; only the head domain, proximal coiled coil and residues 126-144 are resolved in the maps; The tag's end is read from the plasmid's name SMC4-3xStrepII; also called Scm4
# T1 sequence: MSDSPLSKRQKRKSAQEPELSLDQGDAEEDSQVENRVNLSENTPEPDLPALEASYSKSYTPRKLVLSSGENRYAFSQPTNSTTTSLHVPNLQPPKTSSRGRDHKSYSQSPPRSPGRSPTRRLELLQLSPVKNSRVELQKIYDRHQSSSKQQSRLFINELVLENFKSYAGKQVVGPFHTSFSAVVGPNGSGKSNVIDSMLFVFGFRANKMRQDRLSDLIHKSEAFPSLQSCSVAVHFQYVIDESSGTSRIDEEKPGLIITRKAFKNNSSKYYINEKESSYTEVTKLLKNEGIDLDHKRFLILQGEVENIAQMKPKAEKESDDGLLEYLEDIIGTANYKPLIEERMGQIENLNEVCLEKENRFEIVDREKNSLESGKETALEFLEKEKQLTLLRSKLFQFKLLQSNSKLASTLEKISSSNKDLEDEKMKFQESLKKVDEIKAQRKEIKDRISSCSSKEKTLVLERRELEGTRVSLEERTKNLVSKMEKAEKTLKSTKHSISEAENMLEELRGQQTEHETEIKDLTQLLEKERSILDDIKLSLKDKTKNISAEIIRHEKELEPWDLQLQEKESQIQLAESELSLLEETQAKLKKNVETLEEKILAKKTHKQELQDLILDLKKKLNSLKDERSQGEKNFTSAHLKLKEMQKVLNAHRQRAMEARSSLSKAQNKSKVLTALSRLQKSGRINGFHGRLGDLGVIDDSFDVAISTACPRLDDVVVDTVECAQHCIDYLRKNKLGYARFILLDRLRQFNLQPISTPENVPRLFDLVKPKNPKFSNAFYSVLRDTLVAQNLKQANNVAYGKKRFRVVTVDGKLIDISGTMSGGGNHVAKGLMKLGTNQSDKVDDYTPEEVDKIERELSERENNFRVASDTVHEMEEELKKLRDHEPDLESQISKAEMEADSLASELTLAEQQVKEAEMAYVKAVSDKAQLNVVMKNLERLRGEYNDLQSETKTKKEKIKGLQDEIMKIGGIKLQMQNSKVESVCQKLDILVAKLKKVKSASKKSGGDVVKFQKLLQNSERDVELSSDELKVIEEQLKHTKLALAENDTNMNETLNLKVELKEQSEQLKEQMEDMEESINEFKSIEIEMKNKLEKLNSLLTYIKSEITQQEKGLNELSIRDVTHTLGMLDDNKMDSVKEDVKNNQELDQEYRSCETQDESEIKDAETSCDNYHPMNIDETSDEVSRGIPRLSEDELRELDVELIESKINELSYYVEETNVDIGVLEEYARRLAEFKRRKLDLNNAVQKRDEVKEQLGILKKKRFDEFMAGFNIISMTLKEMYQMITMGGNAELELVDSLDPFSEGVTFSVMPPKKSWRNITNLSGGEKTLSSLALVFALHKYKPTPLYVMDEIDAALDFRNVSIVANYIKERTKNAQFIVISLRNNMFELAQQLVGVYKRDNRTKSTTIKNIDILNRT
# B1: Ycs4 (natural protein, S. cerevisiae)
# chain: MSGFSLSEYLTKFQTTDRESYPRLQDPSRELNVIIDQLAVSPEQIDASPDSLEALIDLCHDFPHLTPKLQTQLSYLISSSLSNLSKDIKANLSSNVNFTEIGGLIPQWKRHLEEYGYLIQVLLTFLQDELHKVSSQSTNLNRSAKNSKNDSANVELFKRDCNQMENLLESITKLLEINLSKIFQTTPEKDLFIGLFTRPLFVLLEIEPVTKVSSLKMFIQRILAMCVKNHGQSSSIQSSLMTNLTYFLHLSVFNAELLKLLNDEYNYPQLTEDILKEISTRVFNAKDTTGPKAISNFLIKLSELSPGIMLRQMNLVITLLNNSSITLRCSVVEACGNIVAELAQDPQTMEHYKQQIAVLIELLEERFQDSNPYVRTKAIQGCSKICDLSSKFNKSKAKFTSLAVRSLQDRSSLVRRNSVKLLSKLLLKHPFKAIHGSQLRLSEWEEYLKGSESQLNSTLKKVESQETLNDTIERSLIEEEVEQDEGQCRTELEGSFNKSAELSRIENEVENINATNTSVLMKLKLMIVYYKDAISFIKEIHKSIELISNLLFSKNRNEVLESMDFLVLADAFDIELSEFGIKKMLHLVWMKGTNDEGTSISVHLIECYKQLFLTAPDSCNMQEKAAHIAKNLINLSIGASIADLASLEQLLGMMYEQKLIDQHVINILWAIYNSASKASMQKEQNVNNRDSEKGFSKEQIHGSIIILGMLSLADNEIALKGLESLLNIGLGAVGLKDLTLCRYSCLALERMVPKRSTIITKAINQELEDVAVKKLYAIIINYTKDNEYYPMCEQALSALFTISSKPDILATDLIREKTMMTFGKPEEEDSILSLEQSSRVVSLSQLLFIVGQVAIKTLVYLEKCEAEFKKRKIEAETRNGKVKNQGADVTNTTQDNGGDKELEMIGGTNEDDFTDAIQFVKENELLFGEKSILGKFCPIVEEIVSNSSRFSDPMLQRTATLCLEKLMCLSSKYCEKSLPLLITVMEKSPDPTIRSNAVLGLGDMAVCFNNLVDENTDYLYRRLHDENLMVQRTCLMTVTFLILAGQVKVKGQLGEMAKCLDNPDQGISDMCRLFFTELASKDNAIYNGFIDIFSNLSSDDLLGKESFKKIIKFLLTFIDKERHQKQLNEKLVGRLRKCETQKQWDDIAFVLNNLPYKNEDVTALLEQGFKVVSAKE
# notes: Ycs4, HAWK (HEAT repeat) subunit of S. cerevisiae condensin
# Experiments:
# Details in all cases: both partners purified
# Smc4-3xStrepII [1] = biological target: T1, Smc4-3xStrepII; test: cryo-EM structure; condensin tetramer (Smc2, Smc4, Brn1, Ycs4) with 80-bp dsDNA, 5 mM ADP, 1 mM BeSO4, 10 mM NaF in TNT buffer (30 mM Tris/HCl, 60 mM NaCl, 1 mM TCEP, 2 mM MgCl2, pH 7.5), 30 min at room temperature; clamped head module, Forms I and II
# Ycs4 = biological target: B1; test: cryo-EM structure; condensin pentamer (Smc2, Smc4, Brn1, Ycs4, Ycg1) with 80-bp dsDNA, 5 mM ADP, 1 mM BeSO4, 10 mM NaF in TNT buffer pH 7.5; separate maps of the clamped head module and of Ycg1-DNA
# Smc4-3xStrepII [2] = biological target: T1, Smc4-3xStrepII; test: as above
binding result (Smc4-3xStrepII [1]),binding result (Ycs4),binding result (Smc4-3xStrepII [2]),Binder
binds,binds,–,"Smc2 (natural protein, budding yeast (S. cerevisiae), Smc2, SMC subunit of budding yeast (S. cerevisiae) condensin; only the head domain and proximal coiled coil (neck) are resolved in the maps; Subunit of the wild-type condensin tetramer and pentamer used for cryo-EM) MKVEELIIDGFKSYATRTVITDWDPQFNAITGLNGSGKSNILDAICFVLGIASMSTVRASSLQDLIYKRGQAGVTKASVTIVFDNTDKSNSPIGFTNSPQISVTRQVVLGGTSKYLINGHRAPQQSVLQLFQSVQLNINNPNFLIMQGKITKVLNMKPSEILSLIEEAAGTKMFEDRREKAERTMSKKETKLQENRTLLTEEIEPKLEKLRNEKRMFLEFQSTQTDLEKTERIVVSYEYYNIKHKHTSIRETLENGETRMKMLNEFVKKTSEEIDSLNEDVEEIKLQKEKELHKEGTISKLENKENGLLNEISRLKTSLSIKVENLNDTTEKSKALESEIASSSAKLIEKKSAYANTEKDYKMVQEQLSKQRDLYKRKEELVSTLTTGISSTGAADGGYNAQLAKAKTELNEVSLAIKKSSMKMELLKKELLTIEPKLKEATKDNELNVKHVKQCQETCDKLRARLVEYGFDPSRIKDLKQREDKLKSHYYQTCKNSEYLKRRVTNLEFNYTKPYPNFEASFVHGVVGQLFQIDNDNIRYATALQTCAGGRLFNVVVQDSQTATQLLERGRLRKRVTIIPLDKIYTRPISSQVLDLAKKIAPGKVELAINLIRFDESITKAMEFIFGNSLICEDPETAKKITFHPKIRARSITLQGDVYDPEGTLSGGSRNTSESLLVDIQKYNQIQKQIETIQADLNHVTEELQTQYATSQKTKTIQSDLNLSLHKLDLAKRNLDANPSSQIIARNEEILRDIGECENEIKTKQMSLKKCQEEVSTIEKDMKEYDSDKGSKLNELKKELKLLAKELEEQESESERKYDLFQNLELETEQLSSELDSNKTLLHNHLKSIESLKLENSDLEGKIRGVEDDLVTVQTELNEEKKRLMDIDDELNELETLIKKKQDEKKSSELELQKLVHDLNKYKSNTNNMEKIIEDLRQKHEFLEDFDLVRNIVKQNEGIDLDTYRERSKQLNEKFQELRKKVNPNIMNMIENVEKKEAALKTMIKTIEKDKMKIQETISKLNEYKRETLVKTWEKVTLDFGNIFADLLPNSFAKLVPCEGKDVTQGLEVKVKLGNIWKESLIELSGGQRSLIALSLIMALLQFRPAPMYILDEVDAALDLSHTQNIGHLIKTRFKGSQFIVVSLKEGMFANANRVFRTRFQDGTSVVSIM"
–,–,binds,B1
